Paper PMC5724361 (ACS chemical biology, 2017)

Experiments:
[1] = target: T1, Aβ1–40 (Homo sapiens, UniProt P05067); experiment: IM-MS analysis of complex formation with Aβ1–40; assay type: binding; settings: alanine substituted variants of leucine enkephalin
[2] = target: T1, Aβ1–40; settings: cited from earlier work
[3] = test system: Aβ; settings: incubated in excess with leucine enkephalin, compared with control; cited from earlier work

T1 sequence (P05067 672-711 limits assumed): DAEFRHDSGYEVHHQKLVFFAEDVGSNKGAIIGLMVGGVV

AGGFL: alanine substituted variant of leucine enkephalin (Leu-enkephalin; UniProt P01210 230-234, looked up, variant Y1A)
Complex formation with Aβ1–40 (IM-MS signal) [1]: complexes formed

Leucine enkephalin acetate hydrate
Stoichiometric ratios of Aβ:leucine enkephalin complexes [2]: 1:1 to 1:3, and from 2:1 to 2:3
Aβ fibrillation (TEM and gel) [3]: decreased Aβ fibrillation

YGAFL: alanine substituted variant of leucine enkephalin (Leu-enkephalin; UniProt P01210 230-234, looked up, variant G3A)
Complex formation with Aβ1–40 (IM-MS signal) [1]: complexes formed

YGGAL: alanine substituted variant of leucine enkephalin (Leu-enkephalin; UniProt P01210 230-234, looked up, variant F4A)
Complex formation with Aβ1–40 (IM-MS signal) [1]: no measureable complex signals

YGGFA: alanine substituted variant of leucine enkephalin (Leu-enkephalin; UniProt P01210 230-234, looked up, variant L5A)
Complex formation with Aβ1–40 (IM-MS signal) [1]: no measureable complex signals
